Reference: patent US20160280792A1 (Kyowa Kirin, published 2016)
Positions count from the first letter of the chain named.

Key:
Assay in all cases: flow cytometry, labelled antibody at 1 µg/ml, HEK293T cells expressing the construct
[1] = molecular target: T1, IL-3Rα/GM-CSFRα chimeric protein, region 4 (97-…-104) of IL-3Rα replaced by GM-CSFRα sequence, on HEK293T … (human, UniProt P26951 19-378)
T1 construct: also called Region 4 (A-B)
T1 chain: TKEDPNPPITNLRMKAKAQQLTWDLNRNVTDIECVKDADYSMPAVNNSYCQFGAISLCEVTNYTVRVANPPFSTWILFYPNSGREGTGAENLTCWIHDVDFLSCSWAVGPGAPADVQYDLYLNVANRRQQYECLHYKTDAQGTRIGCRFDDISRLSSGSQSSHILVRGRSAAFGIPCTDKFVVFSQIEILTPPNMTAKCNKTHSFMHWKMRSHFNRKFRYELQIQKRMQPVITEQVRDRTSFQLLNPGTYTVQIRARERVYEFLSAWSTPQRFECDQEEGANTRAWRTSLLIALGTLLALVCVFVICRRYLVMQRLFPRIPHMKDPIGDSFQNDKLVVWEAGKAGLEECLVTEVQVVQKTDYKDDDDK

[2] = molecular target: T2, IL-3Rα/GM-CSFRα chimeric protein, region 6 (182-ILVRGRS-188) of IL-3Rα replaced by GM-CSFRα sequence, on … (human, UniProt P26951 19-378)
T2 construct: also called Region 6 (B)
T2 chain: T1 chain with Y79P, P80E, R84K, E85P, G86W, T87A, I164F, R167N, R169T

[3] = molecular target: T3, IL-3Rα/GM-CSFRα chimeric protein, region 7 (192-GIPCTDK-198) of IL-3Rα replaced by GM-CSFRα sequence, on … (human, UniProt P26951 19-378)
T3 construct: also called Region 7 (B)
T3 chain: T1 chain with Y79P, P80E, R84K, E85P, G86W, T87A, P176Q, C177F, T178F, K180S

[4] = molecular target: T4, IL-3Rα/GM-CSFRα chimeric protein, A domain of IL-3Rα replaced by that of GM-CSFRα, on HEK293T cells (human, UniProt P15509 23-114)
T4 construct: domain: A domain; The KpnI site (GGTACC) at the junction encodes an extra Gly-Thr; also called A domain substitution
T4 sequence: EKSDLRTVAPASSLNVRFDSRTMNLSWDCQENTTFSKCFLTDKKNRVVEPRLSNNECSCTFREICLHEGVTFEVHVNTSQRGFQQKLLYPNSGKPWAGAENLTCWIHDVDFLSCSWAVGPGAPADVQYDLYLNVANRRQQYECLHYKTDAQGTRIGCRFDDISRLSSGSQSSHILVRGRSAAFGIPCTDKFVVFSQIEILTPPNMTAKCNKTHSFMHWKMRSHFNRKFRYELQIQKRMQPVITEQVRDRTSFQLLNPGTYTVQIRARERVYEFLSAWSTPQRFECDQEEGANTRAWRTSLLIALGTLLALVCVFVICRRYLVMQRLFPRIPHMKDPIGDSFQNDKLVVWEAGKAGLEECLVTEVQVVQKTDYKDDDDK
Protocol: (§1) HEK293T cell (ATCC CRL 1268) was used for the preparation of the IL-3Rα/GM-CSFRα chimeric protein expression cell. Using 293Fectin (Invitrogen), the plasmid DNA obtained in the above was introduced as an expression vector into the HEK293T. The HEK293T to which the expression vector was introduced was cultured using a shaker under conditions of 5% CO₂ and 37° C. after 2 days of the introduction, the […] was used for in the flow cytometry analysis.
(§2) From 100,000 to 1,000,000 cells of the chimeric protein expression cell were allowed to react for 30 minutes on ice with at a concentration of 1 μg/ml with an AlexaFlour488-labeled human antibody or a commercially available FITC-labeled anti-IL-3Rα mouse antibody (7G3 or 9F5: both from BD Biosciences, 6H6: Acris Antibodies, AC145: Milteny Biotech, 107D2.08: Dendritics). A staining medium (Dulbecco's PBS supplemented with 2% fetal bovine serum, 2 mM EDTA and 0.05% NaN₃) was used for the dilution of antibodies and cells. Next, the cells reacted with antibodies were washed three times with the staining medium and whether the labeled antibody bound to the cell was confirmed by flow cytometry.

[5] = molecular target: T5, IL-3Rα/GM-CSFRα chimeric protein, B domain of IL-3Rα replaced by that of GM-CSFRα, on HEK293T cells (human, UniProt P15509 115-213)
T5 construct: domain: B domain; The KpnI sites (GGTACC) at both junctions each encode an extra Gly-Thr; also called B domain substitution
T5 sequence: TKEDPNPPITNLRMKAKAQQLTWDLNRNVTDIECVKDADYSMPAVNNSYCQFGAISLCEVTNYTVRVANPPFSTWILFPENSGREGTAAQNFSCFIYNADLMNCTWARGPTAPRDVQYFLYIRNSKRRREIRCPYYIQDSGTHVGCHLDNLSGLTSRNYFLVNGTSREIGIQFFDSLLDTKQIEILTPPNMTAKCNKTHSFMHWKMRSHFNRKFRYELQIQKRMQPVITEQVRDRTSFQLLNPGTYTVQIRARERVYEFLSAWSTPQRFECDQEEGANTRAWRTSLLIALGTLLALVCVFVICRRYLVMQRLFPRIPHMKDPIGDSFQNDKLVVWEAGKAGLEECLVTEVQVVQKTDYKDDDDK
Protocol: as §1, §2

Measured: binding result

B1: Old19 anti-human IL-3Rα human antibody (antibody, human IgG1, V domains shown)
VH: QVQLVQSGAEVKKPGSSVKVSCKASGGTFSSYAISWVRQAPGQGLEWVGGIIPIFGTANYAQKFQGRVTITADESTSTAYMELSSLRSEDTAVYYCARGHKYGPYYFDYWGQGTLVTVSS
VL: DIQMTQSPSSLSASVGDRVTITCRASQGISSWLAWYQQKPEKAPKSLIYAASSLQSGVPSRFSGSGSGTDFTLTISSLQPEDFATYYCQQYNSYPRTFGQGTKVEIK
notes: Human antibody; recombinant form in N5KG1-Val Lark vector (human IgG1, kappa)
no binding (tested: 1 µg/ml): all assays above
